Experimental data from the nanobody polyreactivity screen of Harvey et al. (2022).

Experiment: yeast display, Sf9 membrane polyspecificity reagent, FACS + sequencing; frameworks hold sequencing errors
Outline: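 Sorting gates, low and high (top ~1%), were placed on anti-HA fluorescence to track expression and on streptavidin fluorescence to track reagent binding. A clone's polyreactivity label is taken from the gate it came out of. The reagent was 10% biotinylated, detergent-solubilized Sf9 membrane, applied for 1 hour at 4 °C to galactose-induced yeast display cells.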
In the case of “QVQLVESGGGLVQAGGSLSLSCAASGSIFYHNAMGWYRQAPGKERELVAAITGSGGSTYYADSVKGRFTISRDNAKNTVYLQMNSLKPEDTAVYYCAAVQLYQKHQITYVAHEYWGQGTQVTVSS”, the “polyreactivity (PSR sort gate)” value is reported as “low polyreactivity”.
With “QVQLQESGGGQVQAGGSLRLSCAASGNNSVTGFMGRYRQAPGKERELVASIGIGGTTYYADSVKGRFSISRDNAKNTVYLQMNSLKPEDTAVYYCAARYLYYAYSYWGQGTQVTVSS” the “polyreactivity (PSR sort gate)” value was “low polyreactivity”.
For “QVQLVESGGGLVQAGGSLRLSCAASGSTFRDNAMGWYRQAPGKERELVAAITVIDGTTYYADSVKGRFTISRDYAKNTVYLQMNSLKPEDTAVYYCADDTIWYEYYYWGQGTQVTVSS”, the “polyreactivity (PSR sort gate)” value was “low polyreactivity”.
For “QVQHVESGRGLVQAGGILRLSCAASGRIFRMNAMGWYRQATGKERELDAAITWIGGRTYYADSVKGRFTISRDNAKNTVYLQMNSLKPEDTAVYYCAAAYPLDFWFGFEYDYWGQGTQGTVSS”, the “polyreactivity (PSR sort gate)” value was “high polyreactivity”.
For “QVQLVESGGGLVQAGGSLRLSCAASGSIFRVNTMGWYRQAPGKERELVAGITSRGGSTYYADSVKGRFTISRDNAKNTVYLQMNSLKPEDTAFYYCANRAYGTALYRGYGYWGQGTQVPVSS”, the “polyreactivity (PSR sort gate)” value was “low polyreactivity”.
In the case of “QVQLVESGGGLVQAGGSLRLSCAASGSIFWTIAMGWYRQSPGKERELVASIHSSDASTDYADSVKGRFTISRDNAKNTVYLKMNSLKPEDTAVYYCNAAGAYPYYSEDYYWGQGTQVTVSS”, the “polyreactivity (PSR sort gate)” value is reported as “low polyreactivity”.
With “QVQLVESGGGLLQAGGSLRVSCAASGSIIFFYAMGWYRQAPGKERELVAAISKSPSSTYYADSVKGRFTISRDNAKNTVYLQMNSLKPEDTAVYYCNTGYSGIQYYYWGQGTQVTVSS” the “polyreactivity (PSR sort gate)” value was “low polyreactivity”.
In the case of “QVQLVESGAGLVQAGGSLRLSCAASGSTFAINAMGWYRQAPGKERELVAAISSRGSTNYADSVKGRFTISRDNAKNTVYLQMNSLKPEDTAVYYCAADRVWGTPQAYVPSQFDYWGQGTQVTVSS”, the “polyreactivity (PSR sort gate)” value is reported as “low polyreactivity”.
In the case of “QFQLVESGGGLVQAGGSLRLSCAASGFIFGYNAMGWYRQAPGKERELVAPITYNGASTNYADSVKGRFTISRDNAKNTVYLQMNSLKPEDTAVYYCAADYGPYDPEDDWGQGTQVTVSS”, the “polyreactivity (PSR sort gate)” value is reported as “low polyreactivity”.
With “QVQLVESGGGLDQAGGSLRLSCAASGSTLFPYAMGWYRQAPGKERELVAAISSRGGRTNYADSVKGRFTISRDNAKNTDYLQLYSLKPEDTAVYYCAAGDDYWGQGTEVTVSS” the “polyreactivity (PSR sort gate)” value was “high polyreactivity”.
For “QVQLVESGGGLVQAGGSLRLSCAASGSISPQNVMGWYRQAPGKERELVAAITGGGYTNYADSVKGRFTISRDNAKKTVYLQMNSLKPEDTAVYYCNADYFQDRLDYWGQGTQVTVSS”, the “polyreactivity (PSR sort gate)” value was “low polyreactivity”.
With “QVHLVESGGGLVQAGGSLRLSCAASGIIFHYYAMGWYRQAPGKERALVATMTSGGSTYYADSVKGRFTISRDNAKNTVYLQMNSLKPEDSAVYYCAATYGGSVFEYDYWGQGTQVTVSS” the “polyreactivity (PSR sort gate)” value was “low polyreactivity”.
In the case of “QVQLVESGGGLFQAGGSLRLSCAASGSTLRDYVMGWYRQAPGKERELVAAISWTGDRTYYADSVKGRFTISRDNAKNTVYLQMNSLKPEDTAVYYCNAVYHVTRQGNLDSWGQGTQVTVSS”, the “polyreactivity (PSR sort gate)” value is reported as “low polyreactivity”.
For “QVQLVESGGGLVQAGGSLRLSCAASGSTFKRYTMGWYRQAPGKERELVAAISTSSGSTYFADSVKGRFTISRDNAKISVYLQMNSLKPEDSAVYYCDAVRLRQTYPKYNYWGQGTQVTVSS”, the “polyreactivity (PSR sort gate)” value was “high polyreactivity”.
For “QVQLVDSGGGLVQAGGSLRLSCAASGFTFYRYAMGWYRPAPGKERELVAGITGSGGNTYYADSVKGRFTISRDNAKNTVYLQMNSLKPEDTAVYYCAAEDYVGWYNFEYWGQGNQVTVSS”, the “polyreactivity (PSR sort gate)” value was “high polyreactivity”.
For “QVQLVESGGGLVQAGGSLRLSCAASGYIFRSYAMGWYRQAPGKERELVAAITRSGGSTYYADSVKGRFTISRDNAKNTVYLQMNSPKPEDTAVYYCAVLPRGSNGMDYWGQGTQVTVSS”, the “polyreactivity (PSR sort gate)” value was “low polyreactivity”.
In the case of “QVQLVESGGGIVQAGGSLRLSCAASGRIFSGNAMGWYRQAPGKERELVATISRRGGSTYYADSVKGRFTISRDNAKNTVYLLMNSLKPEDTAVYYCAVDPYAWTKWSTYNYWGQGTQVTVSS”, the “polyreactivity (PSR sort gate)” value is reported as “high polyreactivity”.
With “QVQLVESGGGLVQAGGSLRISCAASGSILTHYAMGWYRQAPGKERELVADINSGGGTSYADSVKGRFTISRDNAKNTVYLQMNSLKPEDTAVYYCAAAWWPYRYPTYYSQFDYWGQGTQVTVSS” the “polyreactivity (PSR sort gate)” value was “low polyreactivity”.
In the case of “QVQLVESGGGLVQAGGSLRLSCAASGSIFGSYAMGWYRQAPGKERELVAGITRRSGSTYYADSVKGRFTISRDNAKNTVYLQMNSLKPEDTAVYYCNAQAYSRRWDARGDYWGQGTQVTVSS”, the “polyreactivity (PSR sort gate)” value is reported as “high polyreactivity”.
For “QVQLVESGGGLVQAGGSLRLSCAASGFTFDSNAMGWYRQAPGKERELVAAISTGGSTYYADSVKGRFTISRDNAKNTVYLQMNSLKPEDTAVYYCARDPPYPDTWYGYWGQGTQVTVSS”, the “polyreactivity (PSR sort gate)” value was “low polyreactivity”.
With “QVQLVESGGGLVQAGGSLRLSCAASGRTFGANTMGWYRPAPGKERELVAAITWSGDSTYYADSVKGRFTISRDNAKNTVYLQMNSLKPEDTAVYYCAARLWRQYYYWGQGTQVTVSS” the “polyreactivity (PSR sort gate)” value was “high polyreactivity”.
In the case of “QVQLVESGGGLVQAGGSLRLSCAASGSIFDSKAMGWFRQGPGKERELVAAINRSDASTYYADSVKGRFTISRDNAKNTVYLQMNSLKPEDTAVYYCAVEVYVYNVDIYDYWGQGTQVTVSS”, the “polyreactivity (PSR sort gate)” value is reported as “low polyreactivity”.
With “QVQHVESGGGLVQAGGSLRLSCAASGRTFPAYAMGWYRQAPGKERELVAAITYDGGTTYYADSVKGRFTISRYNAKNTVYLQMNSLKPEDTAVYYCADVYDEDQYDYWGQGTQVTVSS” the “polyreactivity (PSR sort gate)” value was “low polyreactivity”.
For “QVQLEESGGGLVQAGGSLRLSCAASGSTFYVYAMGWYIQAPGKERELVAAITDSGGSTYADSVKGRFTISRDNAKNTVYLQMNSLKPEDTAVYADSTYTWYYYYWGQGTQVTVSS”, the “polyreactivity (PSR sort gate)” value was “low polyreactivity”.
In the case of “QVQLEESGGGLVQAGGSLRLSCAGSGRNFGVNTMRWYRQATGKERDLVAAISFSGVSTYYADSVKGRFTISRDNAKNTVYLQMNSLKPEDTPVYYCAAVPYRQYPCGGYWGQGTQVTVSS”, the “polyreactivity (PSR sort gate)” value is reported as “low polyreactivity”.
With “QVQLVESGGGLVQAGGSLRLSCAASGLTFDYYTMGWYRQAPGNERELVAAINWSGGRTYYADSVKGRFTISRDNAKNTVYLQMNSLKPEDTAVYYCAAETYRRHDYDYWGQGTQVTVSS” the “polyreactivity (PSR sort gate)” value was “high polyreactivity”.
In the case of “QVQLVESGGGLVQAGGSLRLSCAASGRIFFNYAMGWYRQAPGKERELVAAITRSGGRTYYADSVKGRFTISRDNAKNTVYLQMNSLKPEDTAVYYCAADSGSRGSVAHEYWGQGTQVTVSS”, the “polyreactivity (PSR sort gate)” value is reported as “high polyreactivity”.
For “QVQLEESGGGLVQAGGSLRLSCAASGITFYYNDMGWYRQAPGKERELVAAISSGGTTNYADSVKGRFTISRDNAKNTFYLAMNSLKPEDTAVYYCATGYAEPEWDPFVSDYDYWGQGTQVTVSS”, the “polyreactivity (PSR sort gate)” value was “low polyreactivity”.
With “QVQLVESGGGLVQAGGSLRLSCAASGSILGVYTMGWYRQAPGKERELVAAITSSSSSTYADSVKGRFTISRDNAKNTVYLQMNSLKPEDTAVYYCATRGWSKQLYGGYTQYYYWGQGTQVTVSS” the “polyreactivity (PSR sort gate)” value was “high polyreactivity”.
With “QVQLVESGGGLVQAGGSLRLSCAASGFTFYQYAMGWYRQAPGKEREFVAAISSSGSSTYYADSVKGRFTISRDNAKNTVYLQMNSLKPEDTAVYYCNAYFRNWRYSPGGYWGQGTQVTVSS” the “polyreactivity (PSR sort gate)” value was “high polyreactivity”.
For “QVQLVESGGGLVQAGGSLRLSCAASGLIVWYYAMGWYRQAPGKERELVATITSRGGSTYYADSVKGRFTISRDNAKNTVYLQMNSLKPEDTAVYYCARENPGDSYYDYWGQATQVTVSS”, the “polyreactivity (PSR sort gate)” value was “low polyreactivity”.
In the case of “QVQLVESGGGLVQAGGSLRLSCAASGIIFFYNAMGWYRQAPGKERELVAAITIGGITYADSVKGRFTISRDNAKNTVYLQMNSLNPEDTAVYYCNKRTDSDSGHWEHDYWGQGTQVTVSS”, the “polyreactivity (PSR sort gate)” value is reported as “low polyreactivity”.
For “QVQLVESVGGLVQAGGSLRISCAASGSTLTRNTMGWYRPAPGKEREFVATITRSGGSTYYADSVKGRFTISRDNAKNTVYLQMNSLKPEDTAVYYCAVRRQTFRYVYPGMDYWGQGTQVTVSS”, the “polyreactivity (PSR sort gate)” value was “high polyreactivity”.
In the case of “QVQLVESGGGLVQAGGSLRLSCAASGRTFKTYTMGWYRQEPGKERELVAVISSGGGSTNYADSVKGRFTISRDKAKNTVNLQMNSRKPEDTAVYYCAARKPGRPKYRYDYWGQGSQVTVSS”, the “polyreactivity (PSR sort gate)” value is reported as “low polyreactivity”.
In the case of “QVQLVESAGGLVQAGGSLRLSCAASGSTFYPYAIGWYRQAPGKERELVAAISSGGSTYYADSVKGRFTISRDNAKNTVYLQMNSLKPEDTAVYYCAADFYYAYYWGQGTQVTVSS”, the “polyreactivity (PSR sort gate)” value is reported as “low polyreactivity”.
In the case of “QVQLVESGGGLVPSGGSLRLSCAASGGIFYFNAMGWYRQAPGKERELVASITWSGGNTYYADSVKGRFTISRDNAKNTVSLQMNSLKPEDTAVYYSAADTQEYRPTYDYWGQGTQVTVSS”, the “polyreactivity (PSR sort gate)” value is reported as “low polyreactivity”.
For “QVQLVESGGGLVQAGGSLRLSCAASGLTFANYAMGWYRQAPGKERELVAAISTWSGGSTYYADSVKGRFTISRDNAKNTVYLQMNSLKPEDTAVYYCAARRYSRGRLPYDYGGQGTQVTVSS”, the “polyreactivity (PSR sort gate)” value was “high polyreactivity”.
In the case of “QVQLVESGGGLVQAGGSLRLSCAASGSTFWNNAMGWYRQAPGKERELVAVINSSGGSTYYADSVKGRFTISRDNAKNTVYLQMNSLKPEDTAVYYCNADATDSYPEKDEHDSWGQGTQVTVSS”, the “polyreactivity (PSR sort gate)” value is reported as “low polyreactivity”.
With “QVQLVESGGGLVQAGGSLRLSCAASGFIFYRYAMGWYRQAPGKERELVATIRYSGGSTYYADSVKGRFTISRDNAKNTVYLQMNSLKPEDTAVYYCNARRWYLPRRLYDYWGQGTQVTVSS” the “polyreactivity (PSR sort gate)” value was “high polyreactivity”.
For “QFQLVESGGGLVQAGGSLRISCAASGSTFVLNAMGWYRQAPGKDREWVAAISQSDYSTYYSDSVKGRFTISRDNAKNTVYLQMNSLKPEDTAVYYSAREYAHLSFLSTSSDYWGQGTQVTVSS”, the “polyreactivity (PSR sort gate)” value was “low polyreactivity”.
With “QVQLVESGGGLVQAGGSLRLSCAASGRIFYQNAMGWYRQAPGKERELVAAISRGDSTYYADSVRGRFTSSRDNAKNTVFLQMNSLKPEDTAVYYCAARRFSYWGKYGYWGQGTQVTVSS” the “polyreactivity (PSR sort gate)” value was “high polyreactivity”.
In the case of “QVQLVESGGGLVQAGGSLRISCAASGFIFFYAMGWYRQAPGKERELVASIDSGVSTDYADSVKGRLTISRDNAKNTVYLQMNSLKPEDNAVYYCAADPWSSLNYDYWGQGTQVTVSS”, the “polyreactivity (PSR sort gate)” value is reported as “low polyreactivity”.
In the case of “QVQLVESGGGLVQAGGTLRLSCAASGITFYLNAMGWYRQAPGKERELVADITVSGGSTYYAVSVKGRFTISRDNVKNTVYLQMNSLKPEDTAVYYCAAKYSSGRVLFEHGYWGQGTQVTVSS”, the “polyreactivity (PSR sort gate)” value is reported as “low polyreactivity”.
